How the values were obtained:
HLA-DR [1] = assay: flow cytometry, surface, RL cells
HLA-DR [2] = assay: flow cytometry, surface, CAG cells
HLA-DR [3] = assay: flow cytometry, surface, U87 cells
HLA-DR [4] = assay: flow cytometry, surface, HT29 cells
HLA-DR [5] = assay: flow cytometry, surface, Lovo cells
HLA-DR [6] = assay: flow cytometry, surface, U118 cells
HLA-DR [7] = assay: flow cytometry, surface, FSCCL cells
HLA-DR [8] = assay: flow cytometry, surface, KMS11 cells
HLA-DR [9] = assay: flow cytometry, surface, Moser cells
HLA-DR [10] = assay: flow cytometry, surface, TU118 cells
HLA-DR [11] = assay: flow cytometry, surface, Aspc-1 cells
HLA-DR [12] = assay: flow cytometry, surface, BxPC-3 cells
HLA-DR [13] = assay: flow cytometry, surface, LS174T cells
HLA-DR [14] = assay: flow cytometry, surface, Panc-1 cells
HLA-DR [15] = assay: flow cytometry, surface, Capan-1 cells
HLA-DR [16] = assay: flow cytometry, surface, RL cells + IFN-γ
HLA-DR [17] = assay: flow cytometry, surface, CAG cells + IFN-γ
HLA-DR [18] = assay: flow cytometry, surface, U87 cells + IFN-γ
HLA-DR [19] = assay: flow cytometry, surface, HT29 cells + IFN-γ
HLA-DR [20] = assay: flow cytometry, surface, Lovo cells + IFN-γ
HLA-DR [21] = assay: flow cytometry, surface, U118 cells + IFN-γ
HLA-DR [22] = assay: flow cytometry, surface, Capan cells + IFN-γ
HLA-DR [23] = assay: flow cytometry, surface, FSCCL cells + IFN-γ
HLA-DR [24] = assay: flow cytometry, surface, KMS11 cells + IFN-γ
HLA-DR [25] = assay: flow cytometry, surface, Moser cells + IFN-γ
HLA-DR [26] = assay: flow cytometry, surface, TU118 cells + IFN-γ
HLA-DR [27] = assay: flow cytometry, surface, Aspc-1 cells + IFN-γ
HLA-DR [28] = assay: flow cytometry, surface, BxPC-3 cells + IFN-γ
HLA-DR [29] = assay: flow cytometry, surface, LS174T cells + IFN-γ
HLA-DR [30] = assay: flow cytometry, surface, Panc-1 cells + IFN-γ
HLA-DR [31] = assay: flow cytometry, permeabilized (cytoplasmic), RL cells
HLA-DR [32] = assay: flow cytometry, permeabilized (cytoplasmic), CAG cells
HLA-DR [33] = assay: flow cytometry, permeabilized (cytoplasmic), U87 cells
HLA-DR [34] = assay: flow cytometry, permeabilized (cytoplasmic), HT29 cells
HLA-DR [35] = assay: flow cytometry, permeabilized (cytoplasmic), Lovo cells
HLA-DR [36] = assay: flow cytometry, permeabilized (cytoplasmic), U118 cells
HLA-DR [37] = assay: flow cytometry, permeabilized (cytoplasmic), FSCCL cells
HLA-DR [38] = assay: flow cytometry, permeabilized (cytoplasmic), KMS11 cells
HLA-DR [39] = assay: flow cytometry, permeabilized (cytoplasmic), Moser cells
HLA-DR [40] = assay: flow cytometry, permeabilized (cytoplasmic), TU118 cells
HLA-DR [41] = assay: flow cytometry, permeabilized (cytoplasmic), Aspc-1 cells
HLA-DR [42] = assay: flow cytometry, permeabilized (cytoplasmic), BxPC-3 cells
HLA-DR [43] = assay: flow cytometry, permeabilized (cytoplasmic), LS174T cells
HLA-DR [44] = assay: flow cytometry, permeabilized (cytoplasmic), Panc-1 cells
HLA-DR [45] = assay: flow cytometry, permeabilized (cytoplasmic), Capan-1 cells
HLA-DR [46] = assay: flow cytometry, permeabilized (cytoplasmic), RL cells + IFN-γ
HLA-DR [47] = assay: flow cytometry, permeabilized (cytoplasmic), CAG cells + IFN-γ
HLA-DR [48] = assay: flow cytometry, permeabilized (cytoplasmic), U87 cells + IFN-γ
HLA-DR [49] = assay: flow cytometry, permeabilized (cytoplasmic), HT29 cells + IFN-γ
HLA-DR [50] = assay: flow cytometry, permeabilized (cytoplasmic), Lovo cells + IFN-γ
HLA-DR [51] = assay: flow cytometry, permeabilized (cytoplasmic), U118 cells + IFN-γ
HLA-DR [52] = assay: flow cytometry, permeabilized (cytoplasmic), Capan cells + IFN-γ
HLA-DR [53] = assay: flow cytometry, permeabilized (cytoplasmic), FSCCL cells + IFN-γ
HLA-DR [54] = assay: flow cytometry, permeabilized (cytoplasmic), KMS11 cells + IFN-γ
HLA-DR [55] = assay: flow cytometry, permeabilized (cytoplasmic), Moser cells + IFN-γ
HLA-DR [56] = assay: flow cytometry, permeabilized (cytoplasmic), TU118 cells + IFN-γ
HLA-DR [57] = assay: flow cytometry, permeabilized (cytoplasmic), Aspc-1 cells + IFN-γ
HLA-DR [58] = assay: flow cytometry, permeabilized (cytoplasmic), BxPC-3 cells + IFN-γ
HLA-DR [59] = assay: flow cytometry, permeabilized (cytoplasmic), LS174T cells + IFN-γ
HLA-DR [60] = assay: flow cytometry, permeabilized (cytoplasmic), Panc-1 cells + IFN-γ

B1: hL243γ4P (anti-HLA-DR) (antibody, from a related filing, V domains shown)
VH: QVQLQQSGSELKKPGASVKVSCKASGFTFTNYGMNWVKQAPGQGLKWMGWINTYTREPTYADDFKGRFAFSLDTSVSTAYLQISSLKADDTAVYFCARDITAVVPTGFDYWGQGSLVTVSS
VL: DIQLTQSPSSLSASVGDRVTITCRASENIYSNLAWYRQKPGKAPKLLVFAASNLADGVPSRFSGSGSGTDYTFTISSLQPEDIATYYCQHFWTTPWAFGGGTKLQIKR
- flow cytometry fluorescence (HLA-DR [1]): 750
- flow cytometry fluorescence (HLA-DR [2]): 1930
- flow cytometry fluorescence (HLA-DR [3]): 41.9
- flow cytometry fluorescence (HLA-DR [4]): 3.3
- flow cytometry fluorescence (HLA-DR [5]): 7.3
- flow cytometry fluorescence (HLA-DR [6]): 6.1
- flow cytometry fluorescence (HLA-DR [7]): 1090
- flow cytometry fluorescence (HLA-DR [8]): 677
- flow cytometry fluorescence (HLA-DR [9]): 4
- flow cytometry fluorescence (HLA-DR [10]): 5.08
- flow cytometry fluorescence (HLA-DR [11]): 3.2
- flow cytometry fluorescence (HLA-DR [12]): 2.3
- flow cytometry fluorescence (HLA-DR [13]): 5.3
- flow cytometry fluorescence (HLA-DR [14]): 4.3
- flow cytometry fluorescence (HLA-DR [15]): 5.5
- flow cytometry fluorescence (HLA-DR [16]): 862
- flow cytometry fluorescence (HLA-DR [17]): 1810
- flow cytometry fluorescence (HLA-DR [18]): 172
- flow cytometry fluorescence (HLA-DR [19]): 298
- flow cytometry fluorescence (HLA-DR [20]): 276
- flow cytometry fluorescence (HLA-DR [21]): 197
- flow cytometry fluorescence (HLA-DR [22]): 66.2
- flow cytometry fluorescence (HLA-DR [23]): 1610
- flow cytometry fluorescence (HLA-DR [24]): 665
- flow cytometry fluorescence (HLA-DR [25]): 8.5
- flow cytometry fluorescence (HLA-DR [26]): 93.5
- flow cytometry fluorescence (HLA-DR [27]): 15.2
- flow cytometry fluorescence (HLA-DR [28]): 43.8
- flow cytometry fluorescence (HLA-DR [29]): 4.7
- flow cytometry fluorescence (HLA-DR [30]): 4.7
- flow cytometry fluorescence (HLA-DR [31]): 1060
- flow cytometry fluorescence (HLA-DR [32]): 2320
- flow cytometry fluorescence (HLA-DR [33]): 102
- flow cytometry fluorescence (HLA-DR [34]): 9.1
- flow cytometry fluorescence (HLA-DR [35]): 32.5
- flow cytometry fluorescence (HLA-DR [36]): 24.6
- flow cytometry fluorescence (HLA-DR [37]): 1470
- flow cytometry fluorescence (HLA-DR [38]): 879
- flow cytometry fluorescence (HLA-DR [39]): 18.2
- flow cytometry fluorescence (HLA-DR [40]): 23.6
- flow cytometry fluorescence (HLA-DR [41]): 11
- flow cytometry fluorescence (HLA-DR [42]): 14.2
- flow cytometry fluorescence (HLA-DR [43]): 23.4
- flow cytometry fluorescence (HLA-DR [44]): 22.7
- flow cytometry fluorescence (HLA-DR [45]): 11.6
- flow cytometry fluorescence (HLA-DR [46]): 1180
- flow cytometry fluorescence (HLA-DR [47]): 2420
- flow cytometry fluorescence (HLA-DR [48]): 429
- flow cytometry fluorescence (HLA-DR [49]): 638
- flow cytometry fluorescence (HLA-DR [50]): 989
- flow cytometry fluorescence (HLA-DR [51]): 352
- flow cytometry fluorescence (HLA-DR [52]): 253
- flow cytometry fluorescence (HLA-DR [53]): 2520
- flow cytometry fluorescence (HLA-DR [54]): 927
- flow cytometry fluorescence (HLA-DR [55]): 40.5
- flow cytometry fluorescence (HLA-DR [56]): 215
- flow cytometry fluorescence (HLA-DR [57]): 73.6
- flow cytometry fluorescence (HLA-DR [58]): 130
- flow cytometry fluorescence (HLA-DR [59]): 42.3
- flow cytometry fluorescence (HLA-DR [60]): 64.1

Source: US20130022541A1
